Data: IntAct's records for PubMed 16824542

B1: SH2B adapter protein 2 (Rattus norvegicus (Rat)), Q9Z200 (parent)
chain: MNGATPGSAAAPAPVPDWRQFCELHAQVAAVDFAHKFCRFLRDNPTYDTPDAGTSFSRHFAANFLAVFSEEVRRVLGTAADTMEPEPAVTSVTSALKTATYGHSRSSEDVSAHVATKARVRKGFSLRNMSLCVVDGVRDLWHRRASPEPEGGATPKTTEPVSEPRDKWTRRLRLARTLAAKVELVDIQREGALRFMVADDAASGPGGTAQWQKCRLLLRRAVAGERFRLEFFVPPKASRPKVSIPLSAIIEVRTTMPLEMPEKDNTFVLKVENGAEYILETIDSLQKHSWVADIQGCVDPGDSEEDTGLSCARGGCLASRVTSCSCELLTEADMPRPPETMTAVGAVVTAPHGRARDTVGESLAHVPLETFLQTLESSGGVSESNNTGDEGAELDPDAEAELELSDYPWFHGTLSRVKAAQLVLAGGPRSHGLFVIRQSETRPGECVLTFNFQGKAKHLRLSLNGHGQCHVQHLWFQSVFDMLRHFHTHPIPLESGGSADITLRSYVRAQGPPPDPGPAPNTAAPVPACWTEPAGQHYFSSLATATCPPTSPSNGAGASSSSGSSSSATSVPPRPAEGPLSARSRSNSTEHLLEAASGATEEPADATLGRARAVENQYSFY

Variants of: B1
Conditions: with insr_human INSR

Variant	effect of a mutation on the interaction
R442A	decreasing interaction
R460A	disrupting interaction
W475H	decreasing interaction
